The EC50 (read off the curve) is the concentration at which the effect is half-maximal. The Kd is the concentration at which binding is half-saturated.

The target of experiment [1] is T1, α5β1 human recombinant protein (human, UniProt P08648 42-995; P05556 21-728).
T1 construct: Bought from R&D Systems; also called α5β1 receptor; integrin α5β1
Briefly: microscale thermophoresis, 1 µM labelled peptide with rising concentrations of the receptor in solution. Here is the method: (§1) Fluorescent labeled peptide (AV3-PEG(6)-5FAM or AXI-I-PEG(6)-FITC) (1 μM) was incubated with different concentrations of a human recombinant receptor (i.e., α5β1, α11β1 or αvβ3) for 10 minutes in Eppendorf tubes. The mixture of peptide and receptor was loaded in to NT.115™ hydrophilic glass capillaries. In order to find the best thermophoretic setting, the binding of peptide to the target receptor was examined at low (20%), middle (40%), and high (80%) MST power and all other binding experiments were performed using the same MST-settings. Finally, the dissociation constant (Kd) value was calculated from an average of three experiments.
(§2) Fluorescent labeled peptides (AV3-PEG(6)-5FAM and AXI-I-PEG(6)-FITC) were examined for their binding affinities against α5β1 and α11β1 receptors, respectively using microscale thermophoresis (MST). MST allows peptides to interact with the receptors in solution phase. These peptides were also exposed to an irrelevant receptor of the integrin family αvβ3 and MST analyses were performed.
(Microscale thermophoresis detects binding through changes in fluorescence in a small temperature gradient.)

The target in experiment [2] is T2, human recombinant receptor αvβ3 (human, UniProt P06756 31-992; P05106 27-718, limits assumed).
T2 construct: also called irrelevant receptor of the integrin family
T2 sequence (P06756 31-992 limits assumed, chain 1 of 2): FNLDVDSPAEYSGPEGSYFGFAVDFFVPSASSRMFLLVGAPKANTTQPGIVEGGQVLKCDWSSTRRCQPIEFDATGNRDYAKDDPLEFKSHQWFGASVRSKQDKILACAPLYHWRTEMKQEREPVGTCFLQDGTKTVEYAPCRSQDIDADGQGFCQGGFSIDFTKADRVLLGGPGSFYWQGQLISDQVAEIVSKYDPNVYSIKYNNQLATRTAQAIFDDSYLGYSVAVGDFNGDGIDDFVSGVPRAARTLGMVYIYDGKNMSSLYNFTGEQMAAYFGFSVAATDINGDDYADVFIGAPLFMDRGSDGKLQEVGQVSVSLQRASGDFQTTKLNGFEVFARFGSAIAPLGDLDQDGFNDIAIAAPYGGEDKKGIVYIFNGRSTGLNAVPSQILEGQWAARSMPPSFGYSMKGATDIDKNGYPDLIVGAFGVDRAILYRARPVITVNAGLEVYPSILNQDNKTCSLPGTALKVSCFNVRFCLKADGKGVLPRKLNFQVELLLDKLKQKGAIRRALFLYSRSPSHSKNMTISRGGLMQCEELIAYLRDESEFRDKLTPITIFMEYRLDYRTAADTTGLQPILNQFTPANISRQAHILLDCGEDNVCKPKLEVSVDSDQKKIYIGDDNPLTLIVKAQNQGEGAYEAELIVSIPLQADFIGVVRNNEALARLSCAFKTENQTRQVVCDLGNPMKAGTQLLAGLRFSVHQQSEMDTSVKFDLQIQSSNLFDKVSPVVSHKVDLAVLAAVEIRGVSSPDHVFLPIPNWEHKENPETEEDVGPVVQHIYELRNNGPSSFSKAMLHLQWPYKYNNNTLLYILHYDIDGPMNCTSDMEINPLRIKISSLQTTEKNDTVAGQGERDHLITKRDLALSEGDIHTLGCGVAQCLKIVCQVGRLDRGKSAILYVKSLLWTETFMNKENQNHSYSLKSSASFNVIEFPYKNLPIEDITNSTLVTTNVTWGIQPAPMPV
T2 sequence (P05106 27-718 limits assumed, chain 2 of 2): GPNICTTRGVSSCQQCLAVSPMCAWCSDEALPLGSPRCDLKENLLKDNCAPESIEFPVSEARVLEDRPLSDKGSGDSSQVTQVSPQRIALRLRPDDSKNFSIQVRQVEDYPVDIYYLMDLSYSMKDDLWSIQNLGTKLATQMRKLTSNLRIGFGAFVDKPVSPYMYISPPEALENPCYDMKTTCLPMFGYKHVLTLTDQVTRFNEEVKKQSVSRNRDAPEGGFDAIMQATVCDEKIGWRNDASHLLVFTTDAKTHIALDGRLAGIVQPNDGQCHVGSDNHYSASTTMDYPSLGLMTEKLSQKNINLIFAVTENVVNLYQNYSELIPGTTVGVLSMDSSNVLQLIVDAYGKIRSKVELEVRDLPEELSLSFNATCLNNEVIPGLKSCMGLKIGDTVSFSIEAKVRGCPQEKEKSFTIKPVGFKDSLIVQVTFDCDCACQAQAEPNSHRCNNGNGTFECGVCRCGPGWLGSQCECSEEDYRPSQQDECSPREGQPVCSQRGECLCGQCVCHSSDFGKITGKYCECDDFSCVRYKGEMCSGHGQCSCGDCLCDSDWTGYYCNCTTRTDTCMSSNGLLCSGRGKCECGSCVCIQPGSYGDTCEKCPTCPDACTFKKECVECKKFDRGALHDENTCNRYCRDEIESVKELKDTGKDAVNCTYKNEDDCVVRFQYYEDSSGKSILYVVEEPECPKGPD
Briefly: microscale thermophoresis, 1 µM labelled peptide, receptor titrated, in solution. On the procedure: as §1, §2

Experiment [3] addresses T1, α5β1 human recombinant protein. The description is as above. Here is the method: as §1, §2
Experiment [4] addresses T3, rhIntegrin α11β1 (human, UniProt Q9UKX5 23-1141; P05556 21-728, limits assumed).
T3 construct: Bought from R&D Systems; also called α11β1 receptor; ITGA11 receptor
Kind of experiment: phage ELISA on coated rhIntegrin α11β1, HRP-anti-M13 antibody, read at 490 nm; control coatings rhIntegrin α4β1 (Bar 2) and no coating (Bar 3); one phage dose, no concentration given. On the procedure: For each clone, 20 mL of LB medium was inoculated with ER2738 and incubated at 37° C. until slightly turbid. Single plaque of phages were inoculated to each culture and then incubated at 37° C. with vigorous aeration for 4.5 hours. The cultures were transferred to a fresh centrifuge tube and centrifuged for 10 minutes at 10,000 rpm. The upper 80% of the supernatant was transferred to a fresh tube and precipitated with PEG/NaCl twice. Then the pellet was suspended in 250 μL TBS. The 96-well ELISA plate was coated with 100 μL of 1 μg/mL target in coating buffer and incubated at 4° C. overnight. Then, the plate was washed once with the washing buffer (0.1% TWEEN® in TBS). All wells were blocked with 250 μL of blocking buffer at 4° C. for 1-2 hours. Then, the plate was washed 6 times with the washing buffer and slapping on a paper towel to remove excess buffer. Thereafter, 100 μL of phage virions was added per well. In competitive phage ELISA, competitive antigen was mixed with phages in washing buffer and added to the wells and incubated at room temperature for 1-2 hours with agitation. The plate was washed 6 times with washing buffer. HRP-conjugated anti-M13 antibody (GE healthcare, 1:5000 in blocking buffer) was added to each well and incubated at room temperature for 1 hour with agitation. […] The plates were read using a microplate reader at 490 nm.
(In general: ELISA stands for enzyme-linked immunosorbent assay.)

Experiment [5] deals with T1, α5β1 human recombinant protein. Kind of experiment: FITC-labelled peptide on coated α5β1 receptor in a 96-well plate, fluorescence intensity (counts). On the procedure: (§3) The purified human recombinant α5β1 or α11β1 receptors (5 μg/ml in PBS) were coated onto 96-well ELISA plates (White Maxisorb-Nunc) by incubating overnight at 4° C. Then, the wells were blocked with blocking buffer (5% (w/v) BSA, 150 mM Nacl, 25 mM Tris) for 2 hours at room temperature. Then, the wells were washed three times with 200 μl of washing buffer (150 mM Nacl, 25 mM Tris-base, 0.005% TWEEN® 20, 0.5% BSA). Thereafter, the peptides conjugated with PEG(6)-FITC were diluted to different concentrations in washing buffer. For the competitive studies, the wells were co-incubated with 10-fold higher amount of unlabeled peptides. The plates were incubated at 37° C. for 60 minutes. Then, the wells were washed three times with washing buffer and subsequently, the plates were read for the fluorescein signal Ex/Em 485 nm/520 nm using a fluorescent plate reader (Perkin Elmer).
(§4) Blocking of the peptide with 10-fold excess of unlabeled peptide blocked the binding of nAV2-PEG(6)-fluorescein. In addition, a new short peptide (RYYRITY (SEQ ID NO:8), called AV3) was also designed because seq. 3 and seq. 4 (see the sequences above) had “YYRITY” (SEQ ID NO:10) as common amino acids and the N-terminal of the seq. 4 was crucial for the binding to the receptor. […] Therefore, AV3 was selected to move with further studies.

For experiment [6] the target is unchanged. Briefly: overlapping peptides on membrane incubated with 5 µg/ml α5β1; bound receptor transferred and detected with anti-alpha5 antibody. Here is the method:
Peptides were attached to their c-terminal site using stable linker. […] The peptide-displaying […] membrane was soaked in methanol for 1 minute and rinsed in Tris-buffered saline (TBS) and washed three times. Then, the membrane was blocked with 3% BSA in 0.05% TWEEN®-20 containing TBS (TBST) for 3 hours at room temperature. Then, the membrane was washed for 10 minutes with TB ST and incubated with 5 μg/ml α5β1 human recombinant protein (R&D systems) in 3% BSA in TB ST for 1 hour at room temperature and then overnight at 4° C. Subsequently, the membrane was washed three times with TB ST. Thereafter, the bound receptor to the membrane was transferred to the PVDF membrane. To achieve this, first, the PVDF membrane was soaked in methanol for 1 minute and then blocked with 5% skimmed fat milk for 2 hours. Then, the membrane was incubated with primary anti-alpha5 integrin antibody (Sigma-Aldrich) for overnight in 5% skimmed milk. The membrane was washed three times with TBST and then incubated with anti-rabbit-HRP secondary antibody (Dako), washed and developed with chemiluminescence detection kit.
The domains 9 and 10 of FN were chosen to design peptides, as these domains were reported to be responsible for binding to the α5β1 receptor, as shown with the docking experiments (Nagae et al, 2012 J. Cell Biol. 131-140). The interaction studies were performed against human recombinant integrin α5β1 receptor and the bound proteins were transferred to another membrane and ITGA5 was detected with antibodies. Many sequences appeared to bind to the α5β1 receptor from human and mouse domains, the strongest binding was obtained with 2 sequences from human FN-III domain 10 as follows.

For experiment [7] the target is unchanged. Briefly: competition: unlabelled AV3 in excess against nAV2-FITC on coated α5β1 receptor, fluorescence intensity (counts). On the procedure: as §3, §4
For experiment [8], the target named is T3, rhIntegrin α11β1. Briefly: competition: unlabeled AXI-I in 10-fold excess against AXI-I-FITC on coated α11β1 receptor, fluorescence intensity. Here is the method:
Purified ITGA11 receptor (α11β1; 100 μg/ml—stock; R&D systems) was diluted to 5 μg/ml with 1×PBS. 96-well ELISA White Maxisorb plate (Nunc) was coated with 50 μl of 5 μg/ml ITGA11 (or as control α5β1) receptor for overnight at 4° C. Then, wells were blocked for 3-4 hours with 200 μl of blocking buffer (1×PBS containing 5% BSA). Wells were washed three times with 200 μl of washing buffer (1×PBS containing 0.5% BSA and 0.05% TWEEN®-20). Peptides conjugated with FITC were diluted to different concentrations in washing buffer and then added to the plate and incubated at 37° C. for 1 hour. In addition, the binding of the peptide was blocked by co-incubation with 10× higher amount of unlabeled peptide. Subsequently, wells were washed three times with washing buffer. Then, 100 μl of 1×PBS was added and plates were read at 485 nm/520 nm with a fluorescence plate reader.

Primed or numbered codes have the meaning given here. Where no end group is shown, it is not given here. Side-chain parts run from the residue outwards. membrane = cellular membrane (peptide-display support, peptide attached at its C-terminus via a stable linker); stable linker = not defined here; PEG(6) = PEG(6) linker

T3 sequence (Q9UKX5 23-1141 limits assumed, chain 1 of 2): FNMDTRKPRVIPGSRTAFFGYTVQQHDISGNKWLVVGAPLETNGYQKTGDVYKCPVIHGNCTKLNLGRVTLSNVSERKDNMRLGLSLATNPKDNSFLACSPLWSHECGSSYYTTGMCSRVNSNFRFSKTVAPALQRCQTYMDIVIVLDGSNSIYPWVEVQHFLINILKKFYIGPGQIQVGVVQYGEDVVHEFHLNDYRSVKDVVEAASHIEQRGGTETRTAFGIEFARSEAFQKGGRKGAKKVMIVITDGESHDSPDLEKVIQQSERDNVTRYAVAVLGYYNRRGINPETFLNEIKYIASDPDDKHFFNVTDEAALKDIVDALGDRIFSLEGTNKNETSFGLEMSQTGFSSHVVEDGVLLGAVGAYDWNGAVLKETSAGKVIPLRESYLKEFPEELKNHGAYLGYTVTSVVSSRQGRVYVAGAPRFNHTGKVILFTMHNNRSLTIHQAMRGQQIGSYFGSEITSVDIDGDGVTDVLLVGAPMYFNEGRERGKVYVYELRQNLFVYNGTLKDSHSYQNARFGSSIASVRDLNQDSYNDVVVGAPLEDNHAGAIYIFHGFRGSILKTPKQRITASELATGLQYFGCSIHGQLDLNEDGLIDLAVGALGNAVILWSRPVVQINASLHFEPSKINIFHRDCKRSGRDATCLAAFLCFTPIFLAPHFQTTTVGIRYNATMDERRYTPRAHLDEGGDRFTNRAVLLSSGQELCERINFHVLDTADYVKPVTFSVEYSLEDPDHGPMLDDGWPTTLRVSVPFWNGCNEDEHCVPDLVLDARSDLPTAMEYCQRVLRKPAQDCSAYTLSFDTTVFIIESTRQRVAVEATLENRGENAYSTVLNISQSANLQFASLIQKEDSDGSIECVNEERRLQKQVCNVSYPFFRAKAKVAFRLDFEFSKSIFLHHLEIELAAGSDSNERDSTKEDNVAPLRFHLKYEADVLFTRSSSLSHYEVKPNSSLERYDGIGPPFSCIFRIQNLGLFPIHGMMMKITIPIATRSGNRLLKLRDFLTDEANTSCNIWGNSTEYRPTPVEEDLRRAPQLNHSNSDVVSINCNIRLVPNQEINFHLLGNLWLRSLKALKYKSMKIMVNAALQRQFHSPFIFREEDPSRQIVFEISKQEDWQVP
T3 sequence (P05556 21-728 limits assumed, chain 2 of 2): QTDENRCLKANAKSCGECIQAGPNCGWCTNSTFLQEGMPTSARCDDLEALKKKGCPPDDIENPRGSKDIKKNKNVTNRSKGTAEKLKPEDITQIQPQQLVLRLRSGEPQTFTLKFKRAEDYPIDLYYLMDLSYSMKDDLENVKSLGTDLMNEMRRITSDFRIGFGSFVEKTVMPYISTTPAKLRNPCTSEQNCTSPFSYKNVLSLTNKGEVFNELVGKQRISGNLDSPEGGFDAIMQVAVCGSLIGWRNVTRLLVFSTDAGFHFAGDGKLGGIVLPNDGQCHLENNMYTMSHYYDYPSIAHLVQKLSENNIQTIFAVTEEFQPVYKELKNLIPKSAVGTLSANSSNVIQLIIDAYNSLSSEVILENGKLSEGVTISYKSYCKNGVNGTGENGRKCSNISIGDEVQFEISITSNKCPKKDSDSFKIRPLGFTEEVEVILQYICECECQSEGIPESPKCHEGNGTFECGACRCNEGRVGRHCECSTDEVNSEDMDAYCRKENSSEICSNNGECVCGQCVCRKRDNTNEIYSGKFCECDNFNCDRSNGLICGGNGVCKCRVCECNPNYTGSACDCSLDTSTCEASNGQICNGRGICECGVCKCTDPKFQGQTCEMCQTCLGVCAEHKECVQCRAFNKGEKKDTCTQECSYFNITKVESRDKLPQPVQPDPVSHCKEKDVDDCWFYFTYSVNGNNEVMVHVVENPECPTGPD
T1 sequence (P08648 42-995 limits assumed, chain 1 of 2): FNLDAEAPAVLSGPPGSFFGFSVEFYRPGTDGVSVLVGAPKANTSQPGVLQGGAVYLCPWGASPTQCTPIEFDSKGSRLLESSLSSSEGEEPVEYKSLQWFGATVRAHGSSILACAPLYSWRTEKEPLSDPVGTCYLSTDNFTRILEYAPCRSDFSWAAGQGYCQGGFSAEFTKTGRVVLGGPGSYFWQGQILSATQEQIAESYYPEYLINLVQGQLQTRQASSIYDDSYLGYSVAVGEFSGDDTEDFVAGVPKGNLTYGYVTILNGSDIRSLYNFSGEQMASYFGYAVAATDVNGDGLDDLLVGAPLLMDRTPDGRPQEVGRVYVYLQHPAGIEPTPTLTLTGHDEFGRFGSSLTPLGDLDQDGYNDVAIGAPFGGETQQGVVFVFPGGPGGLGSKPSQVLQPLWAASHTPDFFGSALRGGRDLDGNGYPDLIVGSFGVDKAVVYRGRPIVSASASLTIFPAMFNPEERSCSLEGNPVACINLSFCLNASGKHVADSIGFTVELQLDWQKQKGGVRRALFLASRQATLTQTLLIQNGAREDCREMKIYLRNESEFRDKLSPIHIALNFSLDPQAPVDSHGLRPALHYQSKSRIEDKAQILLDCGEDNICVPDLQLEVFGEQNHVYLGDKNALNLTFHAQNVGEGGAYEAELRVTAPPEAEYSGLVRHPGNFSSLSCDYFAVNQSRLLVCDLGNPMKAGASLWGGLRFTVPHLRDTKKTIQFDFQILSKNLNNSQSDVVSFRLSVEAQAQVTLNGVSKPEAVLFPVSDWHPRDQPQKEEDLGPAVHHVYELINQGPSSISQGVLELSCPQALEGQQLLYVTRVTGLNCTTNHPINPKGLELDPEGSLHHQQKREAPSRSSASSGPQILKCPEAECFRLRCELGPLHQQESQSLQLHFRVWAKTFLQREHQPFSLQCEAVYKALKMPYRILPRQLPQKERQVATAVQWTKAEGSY
T1 sequence (P05556 21-728 limits assumed, chain 2 of 2): as the sequence (P05556 21-728 limits assumed, chain 2 of 2) above

B1: AV3-PEG(6)-5FAM (peptide)
peptide: RYYRITY
modifications: also: PEG(6)-5FAM conjugated, site not given here
notes: also called AV3 peptide (fluorescent labeled)
On to B1, for which, in experiment [1], the “EC50 (read off the curve)” value is about 100 nM. Further, the Kd in experiment [2] came to 36100 nM; in experiment [3], 97.8 nM.

B2: Phage clone 27 displaying AXI-II (peptide)
chain: SFATWTPNFERN
notes: Whole phage virions in the phage ELISA; not shown: phage coat protein of the Ph.D.12 library
With B2, in the experiment with rhIntegrin α11β1 [4], the binding result is “binds”.

B3: FITC-labeled nAV2: YYRITYGETGGN-K-PEG(6)-Fluorescein (peptide)
peptide: YYRITYGETGGNK([PEG(6)-fluorescein])
notes: also called nAV2-FITC; nAV2-PEG(6)-fluorescein
In the case of B3, the binding result in experiment [5] is “binds”.

B4: Phage clones 11, 13, 14, 16, 19, 20, 21, 22, 24, 25, 28, 29, 30, 31 and 38 displaying AXI-I (peptide)
chain: SGLTEWLRWFNS
notes: as for B2
In the case of B4, the binding result in the experiment with rhIntegrin α11β1 [4] is “binds”.

B5: TNLLVRYSPVKN (peptide)
peptide: TNLLVRYSPVKN-{stable linker-membrane}
modifications: reading uncertain
On to B5, for which the binding result in experiment [6] is listed as “binds”.

B6: AV3 peptide RYYRITY (peptide)
peptide: RYYRITY
notes: Unlabelled; On the peptide microarray it is linked by its N-terminus to a glass slide through a PEG linker
For B6, the binding result in experiment [7] is on record as “binds”.

B7: AXI-I peptide SGLTEWLRWFNS (peptide)
peptide: SGLTEWLRWFNS
notes: Unlabelled peptide; On the peptide microarray it is linked by its N-terminus to a glass slide through a PEG linker; also called unlabeled AXI-I
Turning to B7, the binding result in the experiment with rhIntegrin α11β1 [8] was “binds”.

The values are drawn from patent US20240025965A1 (UNIVERSITEIT TWENTE, published 2024).
